Test results as given in patent US20220144927A1 (SUMITOMO DAINIPPON PHARMA, published 2022).
Substitutions are numbered along the chain they refer to.

B1: antibody 1 (antibody, V domains shown)
VH: EVQLLESGGGLVQPGGSLRLSCAASGFTFSNYGMSWVRQAPGKGLEWVSTISNSGRYTYFPDSVKGRFTISRDNSKNTLYLQMNSLRAEDTALYYCTRHLDYANYDAMDYWGQGTLVTVSS
VL: DIVMTQSPSSLSASVGDRVTITCRASKSVTTSDFSYMHWYQQKPGKAPKLLIYLASNLESGVPSRFSGSGSGTDFTLTISSLQPEDFATYYCQHSREFPWTFGGGTKVEIK
notes: Humanized antibody of the invention; also called H01L01
B2: antibody 18 (antibody, V domains shown)
VH: B1 VH with L5V, Q13K, S75A, T78S, L93V, T97A
VL: DIVMTQTPLSSPVTLGQPASISCRASKSVTTSDFSYMHWLQQRPGQPPRLLIYLASNLESGVPDRFSGSGAGTDFTLKISRVEAEDVGVYYCQHSREFPWTFGQGTKVEIK
notes: also called H06L06
B3: antibody 4 (antibody, V domains shown)
VH: B1 VH
VL: DIVMTQSPDSLAVSLGERATINCKASKSVTTSDFSYLHWYQQKPGQPPKLLIYLASNLESGVPDRFSGSGSGTDFTLTISSLQAEDVAVYYCQHSREFPWTFGGGTKLEIK
notes: Humanized antibody of the invention; also called H01L04
B4: antibody 19 (antibody, V domains shown)
VH: B1 VH with L93V, T97A, R98K
VL: B2 VL with S11L, P12S, L15P, L40Y, Q41L, R43K, R49Q, A71S
notes: also called H05L07
B5: antibody 13 (antibody, V domains shown)
VH: B1 VH with A24V, K76R, S85T, L93V, L116P
VL: B1 VL
notes: Humanized antibody of the invention; also called H04L01
B6: antibody 5 (antibody, V domains shown)
VH: B1 VH with E1L, L5V, L11V, Q13R, V37I, S75A, T78S
VL: B1 VL
notes: Humanized antibody of the invention; also called H02L01
B7: antibody 17 (antibody, V domains shown)
VH: B1 VH with L93V, T97A, R98K
VL: B1 VL with V3Q, S12A, A13V, V15L, K46L, L77F, F87I, G104Q, I110V
notes: also called H05L05
B8: antibody 3 (antibody, V domains shown)
VH: B1 VH
VL: B1 VL with V3Q, A47S, T76S
notes: Humanized antibody of the invention; also called H01L03
B9: antibody 8 (antibody, V domains shown)
VH: B1 VH with E1L, L5V, L11V, Q13R, V37I, S75A, T78S
VL: B3 VL
notes: Humanized antibody of the invention; also called H02L04
B10: antibody 10 (antibody, V domains shown)
VH: B1 VH with E1L, L5V, L11V, G16R, S49A, L93V
VL: B1 VL with I2V, S10T, K46Q, G104Q, V108L
notes: Humanized antibody of the invention; also called H03L02
B11: antibody 6 (antibody, V domains shown)
VH: B1 VH with E1L, L5V, L11V, Q13R, V37I, S75A, T78S
VL: B1 VL with I2V, S10T, K46Q, G104Q, V108L
notes: Humanized antibody of the invention; also called H02L02
B12: antibody 11 (antibody, V domains shown)
VH: B1 VH with E1L, L5V, L11V, G16R, S49A, L93V
VL: B1 VL with V3Q, A47S, T76S
notes: Humanized antibody of the invention; also called H03L03
B13: antibody 16 (antibody, V domains shown)
VH: B1 VH with A24V, K76R, S85T, L93V, L116P
VL: B3 VL
notes: Humanized antibody of the invention; also called H04L04
B14: antibody 9 (antibody, V domains shown)
VH: B1 VH with E1L, L5V, L11V, G16R, S49A, L93V
VL: B1 VL
notes: Humanized antibody of the invention; also called H03L01
B15: antibody 14 (antibody, V domains shown)
VH: B1 VH with A24V, K76R, S85T, L93V, L116P
VL: B1 VL with I2V, S10T, K46Q, G104Q, V108L
notes: Humanized antibody of the invention; also called H04L02
B16: antibody 12 (antibody, V domains shown)
VH: B1 VH with E1L, L5V, L11V, G16R, S49A, L93V
VL: B3 VL
notes: Humanized antibody of the invention; also called H03L04
B17: antibody 15 (antibody, V domains shown)
VH: B1 VH with A24V, K76R, S85T, L93V, L116P
VL: B1 VL with V3Q, A47S, T76S
notes: Humanized antibody of the invention; also called H04L03
B18: antibody 7 (antibody, V domains shown)
VH: B1 VH with E1L, L5V, L11V, Q13R, V37I, S75A, T78S
VL: B1 VL with V3Q, A47S, T76S
notes: Humanized antibody of the invention; also called H02L03
B19: antibody 2 (antibody, V domains shown)
VH: B1 VH
VL: B1 VL with I2V, S10T, K46Q, G104Q, V108L
notes: Humanized antibody of the invention; also called H01L02

Key:
mucin subtype 5AC [1] = target: T1, mucin subtype 5AC (human, UniProt P98088 28-5654, limits assumed); assay: ELISA, plate coated with crude extract antigen solution of SW1990 xenograft tumor, HRP anti-human IgG; reference antibody
T1 construct: Not a purified recombinant protein; also called MUC5AC; crude extract antigen solution
Procedure: (§1) Various antibodies were added to a 96 well plate coated with various antigens, and the plate was left standing for 1 hr at room temperature. The plate was washed, a blocking solution was added, and the mixture was left standing for 30 min at room temperature. The plate was washed, HRP-conjugated anti-human IgG was added, and the mixture was left standing for 1 hr or longer at room temperature. The plate was washed, a color development reagent (Bethyl Laboratories, Inc.) was added, and the degree of color development was measured by a microplate reader (VersaMax, Molecular Devices, LLC.).
(§2) In Table 2 and Table 3, a tumor mass collected from a cancer-bearing model mouse transplanted with human pancreatic cancer cell line SW1990 was homogenized, and the supernatant (crude extract antigen solution) after centrifugation was used as an antigen. In Table 4, a mucin fraction obtained by isopycnic centrifugation using cesium chloride from the crude extract antigen solution was used as the antigen.

mucin subtype 5AC [2] = target: T1, mucin subtype 5AC; assay: ELISA, plate coated with mucin fraction (CsCl isopycnic centrifugation of SW1990 tumor crude extract), HRP anti-human IgG
Procedure: as §1, §2

mucin subtype 5AC [3] = target: T1, mucin subtype 5AC; assay: ELISA, plate coated with crude extract antigen solution of SW1990 xenograft tumor, HRP anti-human IgG
Procedure: as §1, §2

| Binder | in vitro binding activity ratio to antibody 20 (mucin subtype 5AC [2]) [fold vs antibody 20] | in vitro binding activity ratio to antibody 1 (mucin subtype 5AC [3]) [fold vs antibody 1] | in vitro binding activity ratio to antibody 9 (mucin subtype 5AC [3]) [fold vs antibody 9] | also measured |
| --- | --- | --- | --- | --- |
| B1 |  |  |  | in vitro binding activity ratio to antibody 1 (mucin subtype 5AC [1]): 1 fold vs antibody 1 |
| B2 | 0.13 |  |  |  |
| B3 | 0.97 | 0.99 |  |  |
| B4 | 0.49 |  |  |  |
| B5 |  |  | 0.9 |  |
| B6 |  | 0.6 |  |  |
| B7 | 0.75 |  |  |  |
| B8 | 1.56 | 0.99 |  |  |
| B9 | 0.7 | 0.72 |  |  |
| B10 |  |  | 0.96 |  |
| B11 |  | 0.71 |  |  |
| B12 |  |  | 1.25 |  |
| B13 | 1.09 |  | 0.88 |  |
| B14 |  |  |  | in vitro binding activity ratio to antibody 9 (mucin subtype 5AC [1]): 1 fold vs antibody 9 |
| B15 |  |  | 1.04 |  |
| B16 |  |  | 0.91 |  |
| B17 |  |  | 1.36 |  |
| B18 |  | 0.65 |  |  |
| B19 |  | 1.03 |  |  |
